Publication PMC6746776, “TA*p63 and GTAp63 achieve tighter transcriptional regulation in quality control by converting an inhibitory element into an additional transactivation domain” (Cell Death & Disease, 2019)
Several values for one entry are separate records, joined by “and”; a condition that tells them apart may be missing. Equal values may be shown once. One block for each molecule: values may come before it. Residues, ends and D or L forms follow the SMILES beside them.

How the values were obtained:
[1] = system: TAp63α; assay: BN-PAGE oligomeric state of TAp63α upon Dox treatment; conditions: H1299 stably expressing; pre-incubated with inhibitor 5, 25, 50 µM for 1 h, then 10 µM Dox 6 h; BN-PAGE
Experimental: (§1) As a control, we used the S582/S583A mutants, which remove the Chk2 priming site preventing tetramerization[13].
(§2) Three hundred nanogram expression vector carrying the p63α gene were transiently transfected in U2OS cells (12-well plate). The next day, cells were treated with 10 µM Dox for 6 h. Migration of the different oligomeric states is indicated by T (tetramer), D (dimer), and M (monomer). […] Western blot analysis was carried out using an anti-myc antibody (4A6, Merck). Cells were pre-incubated with increasing Chk2 (BML-277, Merck) or CK1 inhibitor (PF670462, Sigma–Aldrich) concentrations (5, 25, 50 µM) for 1 h. Afterwards, 10 µM Dox was added and cells were harvested 6 h later. Migration of the different oligomeric states is indicated by T (tetramer), D (dimer), and M (monomer). Vinculin was used as loading control. Protein levels loaded on BN-PAGE were adjusted to equal p63 amounts by prior western blot analysis. SDS-PAGE to detect phosphoshifts were not input adjusted
(§3) H1299 cells were transfected using the Qiagen Effectene kit according to the manufacturer’s manual in a 12-well plate or H1299 cells stably expressing p63 isoforms were used. Cells were harvested and lysed in NP lysis buffer (20 mM Tris, 150 mM NaCl, 2 mM MgCl2, 20 mM CHAPS, 1 mM DTT, complete protease inhibitor cocktail (Roche), PhosSTOP (Roche) pH 7.4 or pH 8.0). Benzonase (Merck) was added and samples were lysed on ice for 1 h. BN-PAGE (3–12%, Thermo Fisher Scientific) was performed and blotted as previously described[17],[35]. Protein levels loaded on BN-PAGE were adjusted to equal p63 amounts by prior western blot analysis. SDS-PAGE to detect phosphoshifts were not input adjusted.
(§4) 300 ng expression vector carrying the p63 gene were transiently transfected in H1299 cells (12-well plate). The next day, cells were treated with 10 µM Dox for 6 h. Migration of the different oligomeric states is indicated by T (tetramer), D (dimer) and M (monomer). […] Stably p63 expressing H1299 were treated with 10 µM Dox for up to 10 h. Protein levels loaded on BN-PAGE were adjusted to equal p63 amounts by prior western blot analysis. SDS-PAGE to detect phosphoshifts were not input adjusted.

[2] = system: TA*p63α; assay: BN-PAGE oligomeric state of TA*p63α upon Dox treatment; conditions: H1299 stably expressing; pre-incubated with inhibitor 5, 25, 50 µM for 1 h, then 10 µM Dox 6 h; BN-PAGE
Experimental: as §1, §2, §3, §4

[3] = system: GTAp63α; assay: BN-PAGE oligomeric state of GTAp63α upon Dox treatment; conditions: H1299 stably expressing; pre-incubated with inhibitor 5, 25, 50 µM for 1 h, then 10 µM Dox 6 h; BN-PAGE
Experimental: as §1, §2, §3, §4

[4] = biological target: T1, p300 Taz2 domain (Homo sapiens, UniProt Q09472); assay: Fluorescence anisotropy with the Taz2 domain of p300; conditions: 100 nM N-terminal fluorescein-labeled peptide, increasing concentration of Taz2, 22 °C, two site specific binding fit (GraphPad Prism 5)
T1 construct: The p300 Taz2 domain was expressed and purified as described before; made in house
T1 sequence (Q09472 1728-1809 limits assumed): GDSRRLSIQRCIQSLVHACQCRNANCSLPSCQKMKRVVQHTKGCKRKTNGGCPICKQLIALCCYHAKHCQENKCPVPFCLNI
Experimental: Fig. 5 Transactivation potential of constitutively tetrameric TA*p63 and GTAp63 isoforms and its correlation with p300 Taz2 domain interaction. a TA assay of C-terminal TA*p63 and GTAp63 isoforms in comparison to TAp63 C-terminal isoforms on the p21 promotor. p53 wt was used as positive, the p53 R175H mutant as negative control. Hundred nanogram of each plasmid (pcDNA3, pGL3 and pRL-CMV) were transiently transfected in Saos-2 cells (12-well plate). Cells were harvested 24 h after transfection and assay was performed. b, c TA titration assay of TA*p63γ and GTAp63γ compared to TAp63γ on the p21 promotor. […] Protein levels were determined via western blotting. […] GAPDH was used as loading control. p63 isoforms were detected with the p63 antibody ab124762 (Abcam) for sensitivity reasons. e TA assay of FWL and potential new TA motif mutants to alanine in the N-terminus of the TA*/GTAp63 isoforms (TA*p63: Y18* F22*, W31* Y35*; GTAp63:.W9′ F12′ V15′, W29′ Y33′) on the p21 promotor. p53 wt was used as positive control, the p53 R175H mutant as negative control. […] Bars represent the mean value of the biological triplicate, error bars represent SD, crosses represent mean value of the technical replicates. f Fluorescence anisotropy experiment with the Taz2 domain of p300 and either N-terminal fluorescein-tagged TA*-GTA*- (1*-39*) or GTA-GTA*- (1′-37′) peptide. […]

[5] = biological target: GTAp63α (not stated (isoform of humans and great apes)); assay: native gel or EMSA; Blue-Native PAGE of lysates of transiently transfected U2OS or H1299 cells treated with 10 µM doxorubicin for 6 h; western blot with anti-myc
[6] = biological target: GTAp63α (not stated (isoform of humans and great apes)); assay: as above; remark: listed apart in the source
[7] = biological target: GTAp63α (not stated (isoform of humans and great apes)); assay: native gel or EMSA; Blue-Native PAGE (3-12%) of lysates of transiently transfected H1299 cells, untreated, harvested 24 h after transfection; western blot with anti-myc
[8] = biological target: GTAp63α FWL (not stated (isoform of humans and great apes)); assay: SEC; in vitro translated protein in rabbit reticulocyte lysate on Superose 6 3.2/300, 50 mM sodium phosphate pH 7.8, 100 mM NaCl, 4 °C; fractions analysed by western blot
[9] = biological target: TAp63α; assay: native gel or EMSA; Blue-Native PAGE of lysates of transiently transfected U2OS or H1299 cells treated with 10 µM doxorubicin for 6 h; western blot with anti-myc
[10] = biological target: TAp63α; assay: native gel or EMSA; Blue-Native PAGE (3-12%) of lysates of transiently transfected H1299 cells, untreated, harvested 24 h after transfection; western blot with anti-myc
[11] = biological target: the molecule itself; assay: native gel or EMSA; Blue-Native PAGE of lysates of transiently transfected U2OS or H1299 cells treated with 10 µM doxorubicin for 6 h; western blot with anti-myc
[12] = biological target: the molecule itself; assay: native gel or EMSA; Blue-Native PAGE (3-12%) of lysates of transiently transfected H1299 cells, untreated, harvested 24 h after transfection; western blot with anti-myc

Kd [4]: 4.79 ± 0.24 µM
Molecule: CSCC[C@H](N)C(=O)N[C@@H](CCCCN)C(=O)N[C@@H](CS)C(=O)N[C@@H](Cc1c[nH]c2ccccc12)C(=O)N[C@@H](CCC(=O)O)C(=O)N[C@@H](CCC(N)=O)C(=O)N[C@@H](CCCNC(=N)N)C(=O)N[C@@H](CC(=O)O)C(=O)N[C@@H](Cc1c[nH]c2ccccc12)C(=O)N[C@H](C(=O)N[C@@H](C)C(=O)N[C@@H](Cc1ccccc1)C(=O)N[C@H](C(=O)N[C@@H](CCCCN)C(=O)N[C@H](C(=O)NCC(=O)N[C@@H](CCCCN)C(=O)N1CCC[C@H]1C(=O)N[C@@H](CS)C(=O)N[C@@H](Cc1ccccc1)C(=O)N[C@H](C(=O)N[C@@H](CCC(=O)O)C(=O)N[C@H](C(=O)N1CCC[C@H]1C(=O)N[C@@H](C)C(=O)N[C@@H](Cc1c[nH]cn1)C(=O)N[C@@H](Cc1ccccc1)C(=O)N[C@@H](CO)C(=O)N[C@@H](Cc1c[nH]c2ccccc12)C(=O)N[C@@H](CCCCN)C(=O)N[C@@H](CCC(=O)O)C(=O)N[C@@H](CO)C(=O)N[C@@H](Cc1ccc(O)cc1)C(=O)N[C@@H](Cc1ccc(O)cc1)C(=O)N[C@@H](CCCNC(=N)N)C(=O)N[C@@H](CO)C(=O)N[C@H](C(=O)O)[C@@H](C)O)[C@@H](C)O)C(C)C)C(C)C)[C@@H](C)O)[C@@H](C)O [GTA-GTA*] (H-MKCWEQRDWTAFTKVGKPCFVETPAHFSWKESYYRST-OH)

Kd [4]: 13.2 ± 0.93 µM
Molecule: CC[C@H](C)[C@H](NC(=O)[C@H](Cc1ccc(O)cc1)NC(=O)[C@@H]1CCCN1C(=O)[C@H](CC(=O)O)NC(=O)[C@@H]1CCCN1C(=O)[C@H](CS)NC(=O)[C@H](Cc1ccc(O)cc1)NC(=O)[C@H](CCC(N)=O)NC(=O)[C@H](CC(C)C)NC(=O)[C@@H](NC(=O)[C@H](C)NC(=O)[C@H](CS)NC(=O)[C@H](CCCNC(=N)N)NC(=O)[C@H](CO)NC(=O)[C@@H](NC(=O)[C@H](CCC(=O)O)NC(=O)[C@H](Cc1ccccc1)NC(=O)[C@H](CC(N)=O)NC(=O)[C@@H](N)CCSC)[C@@H](C)O)[C@@H](C)O)C(=O)N[C@@H](CCC(N)=O)C(=O)N[C@@H](CCCNC(=N)N)C(=O)N[C@@H](Cc1ccccc1)C(=O)N[C@H](C(=O)N[C@@H](CCC(=O)O)C(=O)N[C@H](C(=O)N1CCC[C@H]1C(=O)N[C@@H](C)C(=O)N[C@@H](Cc1c[nH]cn1)C(=O)N[C@@H](Cc1ccccc1)C(=O)N[C@@H](CO)C(=O)N[C@@H](Cc1c[nH]c2ccccc12)C(=O)N[C@@H](CCCCN)C(=O)N[C@@H](CCC(=O)O)C(=O)N[C@@H](CO)C(=O)N[C@@H](Cc1ccc(O)cc1)C(=O)N[C@@H](Cc1ccc(O)cc1)C(=O)N[C@@H](CCCNC(=N)N)C(=O)N[C@@H](CO)C(=O)N[C@H](C(=O)O)[C@@H](C)O)[C@@H](C)O)C(C)C [TA*-GTA*] (H-MNFETSRCATLQYCPDPYIQRFVETPAHFSWKESYYRST-OH)

stoichiometry N [5]: 4
stoichiometry N [6]: 2
stoichiometry N [7]: 2
Molecule: GTAp63α (natural protein)

stoichiometry N [8]: 2
Molecule: GTAp63α FWL (natural protein)

stoichiometry N [9]: 4
stoichiometry N [10]: 2
Molecule: TAp63α (natural protein)

The next lines start with the molecule.

Molecule: NC(=O)c1ccc2nc(-c3ccc(Oc4ccc(Cl)cc4)cc3)[nH]c2c1 [BML-277]
prevention of Dox-induced tetramerization, TAp63α [1]: Tetramerization can also be prevented
prevention of Dox-induced tetramerization, TA*p63α [2]: Tetramerization can also be prevented
prevention of Dox-induced tetramerization, GTAp63α [3]: Tetramerization can also be prevented

Molecule: Nc1nccc(-c2c(-c3ccc(F)cc3)ncn2C2CCCCC2)n1 [PF670462]
prevention of Dox-induced tetramerization, TAp63α [1]: Tetramerization can also be prevented
prevention of Dox-induced tetramerization, TA*p63α [2]: Tetramerization can also be prevented
prevention of Dox-induced tetramerization, GTAp63α [3]: Tetramerization can also be prevented

B1: TA*p63α (natural protein, UniProt Q9H3D4-1 1-680, looked up)
chain: MNFETSRCATLQYCPDPYIQRFVETPAHFSWKESYYRSTMSQSTQTNEFLSPEVFQHIWDFLEQPICSVQPIDLNFVDEPSEDGATNKIEISMDCIRMQDSDLSDPMWPQYTNLGLLNSMDQQIQNGSSSTSPYNTDHAQNSVTAPSPYAQPSSTFDALSPSPAIPSNTDYPGPHSFDVSFQQSSTAKSATWTYSTELKKLYCQIAKTCPIQIKVMTPPPQGAVIRAMPVYKKAEHVTEVVKRCPNHELSREFNEGQIAPPSHLIRVEGNSHAQYVEDPITGRQSVLVPYEPPQVGTEFTTVLYNFMCNSSCVGGMNRRPILIIVTLETRDGQVLGRRCFEARICACPGRDRKADEDSIRKQQVSDSTKNGDGTKRPFRQNTHGIQMTSIKKRRSPDDELLYLPVRGRETYEMLLKIKESLELMQYLPQHTIETYRQQQQQQHQHLLQKQTSIQSPSSYGNSSPPLNKMNSMNKLPSVSQLINPQQRNALTPTTIPDGMGANIPMMGTHMPMAGDMNGLSPTQALPPPLSMPSTSHCTPPPPYPTDCSIVSFLARLGCSSCLDYFTTQGLTTIYQIEHYSMDDLASLKIPEQFRHAIWKGILDHRQLHEFSSPSHLLRTPSSASTVSVGSSETRGERVIDAVRFTLRQTISFPPRDEWNDFNFDMDARRNKQQRIKEEGE
notes: TA*p63α: another translation start site adds 39 aa N-terminally to TAp63α; phosphorylated after doxorubicin (phosphoshift on SDS-PAGE); also called myc-tagged TA*p63α wt; source: U2OS, transiently transfected, in lysate; not shown: myc, N-terminal, kept
stoichiometry N [11]: 4 and 2

B2: TA*p63α (natural protein, UniProt Q9H3D4-1 1-680, looked up)
chain: MNFETSRCATLQYCPDPYIQRFVETPAHFSWKESYYRSTMSQSTQTNEFLSPEVFQHIWDFLEQPICSVQPIDLNFVDEPSEDGATNKIEISMDCIRMQDSDLSDPMWPQYTNLGLLNSMDQQIQNGSSSTSPYNTDHAQNSVTAPSPYAQPSSTFDALSPSPAIPSNTDYPGPHSFDVSFQQSSTAKSATWTYSTELKKLYCQIAKTCPIQIKVMTPPPQGAVIRAMPVYKKAEHVTEVVKRCPNHELSREFNEGQIAPPSHLIRVEGNSHAQYVEDPITGRQSVLVPYEPPQVGTEFTTVLYNFMCNSSCVGGMNRRPILIIVTLETRDGQVLGRRCFEARICACPGRDRKADEDSIRKQQVSDSTKNGDGTKRPFRQNTHGIQMTSIKKRRSPDDELLYLPVRGRETYEMLLKIKESLELMQYLPQHTIETYRQQQQQQHQHLLQKQTSIQSPSSYGNSSPPLNKMNSMNKLPSVSQLINPQQRNALTPTTIPDGMGANIPMMGTHMPMAGDMNGLSPTQALPPPLSMPSTSHCTPPPPYPTDCSIVSFLARLGCSSCLDYFTTQGLTTIYQIEHYSMDDLASLKIPEQFRHAIWKGILDHRQLHEFSSPSHLLRTPSSASTVSVGSSETRGERVIDAVRFTLRQTISFPPRDEWNDFNFDMDARRNKQQRIKEEGE
notes: TA*p63α: another translation start site adds 39 aa N-terminally to TAp63α; also called myc-tagged TA*p63α; source: H1299, transiently transfected (pcDNA3), in lysate; not shown: myc, N-terminal, kept
stoichiometry N [11]: 4
stoichiometry N [12]: 2
